In patent publication CN112375147A (THE THIRD AFFILIATED HOSPITAL NAVAL MEDICAL UNIV OF PLA, dated 2021):

Biological target: T1, YKL-40 (native, secreted); in serum of patients with hepatocellular carcinoma lung metastasis and in culture … (human, UniProt P36222 22-383)
T1 construct: mature; Endogenous secreted protein, not a recombinant construct; also called Chi3l1; BRP39
Test: ELISA of YKL-40 left detectable in patient serum (1:100) after overnight incubation at 4 C with 10 ug/mL antibody, IgG control

T1 sequence (P36222 22-383): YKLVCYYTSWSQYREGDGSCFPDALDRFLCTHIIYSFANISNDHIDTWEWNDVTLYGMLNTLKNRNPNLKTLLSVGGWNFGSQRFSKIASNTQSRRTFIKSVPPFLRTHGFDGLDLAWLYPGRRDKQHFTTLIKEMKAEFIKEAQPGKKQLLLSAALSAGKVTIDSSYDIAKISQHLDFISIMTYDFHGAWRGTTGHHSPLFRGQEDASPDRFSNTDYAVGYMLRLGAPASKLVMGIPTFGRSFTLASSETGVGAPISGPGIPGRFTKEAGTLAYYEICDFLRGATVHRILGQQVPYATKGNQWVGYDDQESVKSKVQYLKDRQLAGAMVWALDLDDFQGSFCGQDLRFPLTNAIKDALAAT

- binding result: binds
B1: 抗人YKL-40中和性单克隆抗体 (antibody, V domains shown)
VH: EVKLEESGGGLVQPGGSMKLSCAASGFTLSDAWMDWVRQSPEKGLEWVAEIRSKGNNHTPYYAESVKGRFTISRDDSRNSVYLQMNTLRAEDTGTYYCTRTVYYYGSSSCAMDYWGQGTSVTVSS
VL: DIQMTQSPASLSASVGETVTITCGASENIYGALNWYQRKQGKSPQLLIFGASNLADDMSSRFSGSGSGRQYSLKISSLHPDDVATYFCQNVLRTPWTFGGGTNLEIK
notes: Monoclonal antibody from mouse immunisation (hybridoma Hyb-NAY); also called N-AY; YKL-40中和性单抗
